Assay results as given in US20200270347A1.

Columns and labels:
Test in all cases: SPR, TYRP1 ECD-Fc captured with anti-PGLALA antibody, 1:1 Langmuir
[1] = target: Cynomolgus TYRP1 ECD-Fc(knob)-Avi / Fc(hole) (cynomolgus) [IgG part: P01857]
[2] = target: Human TYRP1 ECD-Fc(knob)-Avi / Fc(hole) (human) [IgG part: P01857]
[3] = target: Mouse TYRP1 ECD-Fc(knob)-Avi / Fc(hole) (mouse) [IgG part: P01857]

- Kd [1]: 0.12 nM
- Kd [2]: 0.09 nM
- Kd [3]: 0.31 nM
Substance: parental TA99 antibody (Fab)
